Assay results from PMC10022797, “Role of Nesprin-2 and RanBP2 in BICD2-associated brain developmental disorders” (PLOS Genetics, 2023).

B4: GST-tagged RanBP2 fragment (BICD2 binding domain, aa 2148–2240), on glutathione Sepharose (domain or fragment, human, UniProt P49792 2148-2240, looked up)
chain: DIPLQTPHKLVDTGRAAKLIQRAEEMKSGLKDFKTFLTNDQTKVTEEENKGSGTGAAGASDTTIKPNPENTGPTLEWDNYDLREDALDDSVSS
notes: GST fusion from the pGEX-6P-1 vector; also called GST-RanBP2; BBD; source: E. coli, purified on glutathione Sepharose, not eluted

Tests used:
[1] = molecular target: Purified Nesprin-2 fragment (N2G SR 52–56), used in size exclusion chromatography (mouse) (UniProt Q6ZWQ0); assay: SEC; pairwise mixtures, Nesprin-2 or RanBP2 with BICD2-CC3 WT or mutant at 1:2; 1.3 mg Nesprin-2, 0.2 mg RanBP2, 0.4 mg BICD2-CC3; Superdex 200 Increase 10/300 GL; 20 mM HEPES pH 7.5, 150 mM NaCl, 0.5 mM TCEP; bands quantified (Fig 6C-6G, S3, S6)
[2] = molecular target: GST-tagged Nesprin-2 fragment (N2G SR 52–56), on glutathione Sepharose (mouse) (UniProt Q6ZWQ0); assay: pull-down; GST-RanBP2 or GST-Nesprin-2 held on glutathione Sepharose (not eluted), purified His6-tagged BICD2 fragment added to the column, washed, eluted; Coomassie-stained SDS-PAGE, bands quantified (3 sets)
[3] = molecular target: GST-His6-BICD2-CT (aa 630–820) E770G (mouse) (UniProt Q921C5); assay: pull-down; GST-His6-BICD2-CT WT or mutant on glutathione magnetic beads, incubated 3 hrs at 4°C with untransfected or GFP-Nesprin-2 expressing HeLaM lysate (RIPA buffer); immunoblot with anti-RanBP2, anti-GFP and anti-GST, signal ratio normalised to wildtype
[4] = molecular target: GFP tagged Nesprin-2 fragment (GFP-N2G SR), Q6ZWQ0; assay: GST pull-down with immunoblot quantification; conditions: chain shown with the change; GFP-Nesprin-2 expressing HeLaM cell lysate; n = 3; parent: est. 1.0; read off a plot
[5] = molecular target: T1, RanBP2 fragment (aa 2148–2240), GST cleaved (human, UniProt P49792 2148-2240); assay: SEC; competition: Nesprin-2, RanBP2 and BICD2-CC3 WT or mutant mixed at 1:1:2 molar ratio; Superdex 200 Increase 10/300 GL; 20 mM HEPES pH 7.5, 150 mM NaCl, 0.5 mM TCEP (Fig 6L, 6M, S3I, S3J); conditions: both partners purified
T1 construct: expressed as GST fusion from the pGEX-6P-1 vector; also called Hs RanBP2 (aa 2148–2240); BBD

[6] = molecular target: B4; assay: pull-down; GST-RanBP2 or GST-Nesprin-2 held on glutathione Sepharose (not eluted), purified His6-tagged BICD2 fragment added to the column, washed, eluted; Coomassie-stained SDS-PAGE, bands quantified (3 sets); conditions: both partners purified
BICD2 aa 630–800 = molecular target: T2, BICD2 aa 630–800 (mouse, UniProt Q921C5-1 630-800); assay: as above; conditions: both partners purified
T2 construct: Bicd2 (Bicaudal D2), mouse, aa 630–800, contains the entire predicted CC3 domain; cloned into pet28a (NdeI, XhoI); also called Ms BICD2 aa 630–800
T2 sequence (looked up): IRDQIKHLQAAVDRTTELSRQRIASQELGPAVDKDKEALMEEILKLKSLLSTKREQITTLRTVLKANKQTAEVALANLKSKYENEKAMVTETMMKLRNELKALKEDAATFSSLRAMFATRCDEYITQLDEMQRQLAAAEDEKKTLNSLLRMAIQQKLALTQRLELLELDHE

[7] = molecular target: T1, RanBP2 fragment (aa 2148–2240), GST …; assay: SEC; pairwise mixtures, equimolar; Superdex 200 Increase 10/300 GL; 20 mM HEPES pH 7.5, 150 mM NaCl, 0.5 mM TCEP, 1 mM MgCl2; 1.3 mg Nesprin-2, 0.2 mg RanBP2, 0.2 mg BICD2-CC3; fractions on SDS-PAGE (Fig 2D, 2E); conditions: both partners purified

“BICD2-CC3 (aa 711–800) F739I/R743C (from UniProt Q921C5-1 711-800) (domain or fragment)” showed a percent of BICD2-CC3 that co-elutes with Nesprin-2 [1] of 94%.

Work on “BICD2 aa 750–800 (from UniProt Q921C5-1 750-800) (domain or fragment)” yielded an amount of bound molecules compared to the longer fragments (aa 630–800 and 711–800) [2] of 73%.

With “BICD2-CC3 (aa 711–800), His6-tagged (from UniProt Q921C5-1 711-800) (domain or fragment)” the percent of BICD2-CC3 that co-elutes with Nesprin-2 [1] was 23%.

Work on “GFP tagged Nesprin-2 fragment (GFP-N2G SR) (from UniProt Q6ZWQ0 1-6874) (domain or fragment)” yielded a fold change in GFP-Nesprin-2 binding against wildtype BICD2-CT [3] of 6 fold.

B1: GST-His6-BICD2-CT (aa 630–820) wildtype, Q921C5-1 T699M (protein)
chain: IRDQIKHLQAAVDRTTELSRQRIASQELGPAVDKDKEALMEEILKLKSLLSTKREQITTLRTVLKANKQMAEVALANLKSKYENEKAMVTETMMKLRNELKALKEDAATFSSLRAMFATRCDEYITQLDEMQRQLAAAEDEKKTLNSLLRMAIQQKLALTQRLELLELDHEQTRRGRSKAASKAKPASPSL
B1 gave a ratio to parent [4] of 0.53.

B2: GST-His6-BICD2-CT (aa 630–820) wildtype, Q921C5-1 L679R (protein)
chain: IRDQIKHLQAAVDRTTELSRQRIASQELGPAVDKDKEALMEEILKLKSLRSTKREQITTLRTVLKANKQTAEVALANLKSKYENEKAMVTETMMKLRNELKALKEDAATFSSLRAMFATRCDEYITQLDEMQRQLAAAEDEKKTLNSLLRMAIQQKLALTQRLELLELDHEQTRRGRSKAASKAKPASPSL
With B2 the ratio to parent [4] was 2.7.

B3: BICD2-CC3 (aa 711–800), His6-tagged (domain or fragment, mouse, UniProt Q921C5-1 711-800, looked up)
chain: YENEKAMVTETMMKLRNELKALKEDAATFSSLRAMFATRCDEYITQLDEMQRQLAAAEDEKKTLNSLLRMAIQQKLALTQRLELLELDHE
notes: also called Ms BICD2-CC3; source: E. coli LOBSTR-BL21(DE3)-RIL, purified (Ni-NTA)
B3: binds [5]; binds [6].

B4: binds (BICD2 aa 630–800).

B5: BICD2-CC3 (residues 711–800), His6 tag removed (domain or fragment, mouse, UniProt Q921C5-1 711-800, looked up)
chain: YENEKAMVTETMMKLRNELKALKEDAATFSSLRAMFATRCDEYITQLDEMQRQLAAAEDEKKTLNSLLRMAIQQKLALTQRLELLELDHE
B5: binds [7].
